The text below walks through data of article PMC6297234, “aPKC controls endothelial growth by modulating c-Myc via FoxO1 DNA-binding ability”.

This data set addresses GST-FoxO1 DBD S218D (Homo sapiens, UniProt Q12778 151-266, S218D). The experiment in a line: EMSA; 1 µM protein, 1 nM DNA, 1 ng/mL poly dI-dC; 20 mM Tris pH 8.0, 50 mM KCl, 5% glycerol, 2 mM DTT, 0.2 mM EDTA, 2 mM MgCl2, 0.1 mg/mL BSA, 1 ng/mL poly dI-dC; RT 30 min; 6% gel in 0.5X TBE at 4 °C. Conditions: protein: recombinant; tags: GST (pDEST15, N-terminal); blunt. Background: A gel shift assay detects complexes by their altered migration in electrophoresis.

GST-FoxO1 DBD S218D, sequence (Q12778 151-266 S218D): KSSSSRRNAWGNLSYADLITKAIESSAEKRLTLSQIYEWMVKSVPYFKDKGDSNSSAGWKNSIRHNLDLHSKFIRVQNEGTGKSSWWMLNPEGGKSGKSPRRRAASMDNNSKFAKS

B1: FoxO DBE duplex (dsDNA)
DNA 1: CAAAATGTAAACAAGA
DNA 2: TCTTGTTTACATTTTG
In the case of B1, the binding result is recorded as “no binding”.
